1 substance from doi:10.1101/2022.05.27.493400 can be followed below.

A word on the pKd: it is the negative decadic logarithm of the Kd, by convention in mol/L. High values mean a small Kd, low ones a large Kd. In general, koff refers to a measure of how fast the partners let go of each other. Lower therefore signals a long-lived complex. By kon is commonly meant a measure of how fast the partners come together.

The test concerns the target SARS-CoV-2 spike protein, extraviral domain (aa 1-1213) (SARS-CoV-2) (UniProt P0DTC2). As to the kind of experiment: SPR.

pKd: −log10 of the molar value. Several values for one entry are separate records, joined by “and”; a condition that tells them apart may be missing. Identical values can stand only once.

Regarding “pineapple-derived jacalin-related lectin AcmJRL (natural protein)”, the KD of a single replicate, from Langmuir isotherm was 7.9 µM and 11.5 µM and 14 µM; the KD of a single replicate, from rate constants is 3.1 µM and 4 µM and 2.7 µM; the negative logarithm of the Kd (pKd) was 5.49 and 4.95; the koff is 0.00342 s⁻¹. The on-rate (kon) turned out to be 1060 M⁻¹ s⁻¹.
